# Reference: patent publication CN114146174A (HEADA BIOPHARMACEUTICAL SUZHOU CO LTD, dated 2022)
# B1: 抗PD-L1/OX40双特异性抗体 (bispecific antibody, human IgG2, kappa)
# heavy: QVQLVQSGAEVKKPGASVKVSCKASGYTFTSYYMHWVRQAPGQGLEWMGIINPSGGSTSYAQKFQGRVTMTRDTSTSTVYMELSSLRSEDTAVYYCARDHASSSWYTTHLDLWGRGTLVTVSSASTKGPSVFPLAPCSRSTSESTAALGCLVKDYFPEPVTVSWNSGALTSGVHTFPAVLQSSGLYSLSSVVTVPSSNFGTQTYTCNVDHKPSNTKVDKTVERKCCVECPPCPAPPVAGPSVFLFPPKPKDTLMISRTPEVTCVVVDVSHEDPEVQFNWYVDGVEVHNAKTKPREEQFNSTFRVVSVLTVVHQDWLNGKEYKCKVSNKGLPAPIEKTISKTKGQPREPQVYTLPPSREEMTKNQVSLTCLVKGFYPSDIAVEWESNGQPENNYKTTPPMLDSDGSFFLYSKLTVDKSRWQQGNVFSCSVMHEALHNHYTQKSLSLSPGGGGGSGGGGSQVQLQESGGGLVQPGGSLRLSCAASAYTISRNSMGWFRQAPGKGLEGVAAIESDGSTSYSDSVKGRFTISLDNSKNTLYLEMNSLRAEDTAVYYCAAPKVGLGPRTALGHLAFMTLPALNYWGQGTLVTVSS
# light: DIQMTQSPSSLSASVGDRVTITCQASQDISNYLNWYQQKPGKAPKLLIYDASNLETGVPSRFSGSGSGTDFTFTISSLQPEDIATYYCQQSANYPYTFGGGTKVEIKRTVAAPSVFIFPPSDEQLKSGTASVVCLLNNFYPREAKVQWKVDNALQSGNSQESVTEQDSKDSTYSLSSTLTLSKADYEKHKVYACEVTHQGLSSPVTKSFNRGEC
# notes: also called 重组抗肿瘤坏死因子受体超家族成员4(OX40)和抗程序性死亡配体1(PD-L1)双特异性抗体; anti-PD-L1/OX40 bispecific antibody
# Key:
# [1] = biological target: T1, 人PD-L1抗原(购自Promega) (human, UniProt Q9NZQ7 19-238, limits assumed); assay: direct ELISA on coated human PD-L1 antigen; relative binding activity after 1 month at 40℃±2℃, pH 5.0-7.0 samples
# T1 construct: Bought antigen coated on the ELISA plate; also called human PD-L1; CD274
# T1 sequence (Q9NZQ7 19-238 limits assumed): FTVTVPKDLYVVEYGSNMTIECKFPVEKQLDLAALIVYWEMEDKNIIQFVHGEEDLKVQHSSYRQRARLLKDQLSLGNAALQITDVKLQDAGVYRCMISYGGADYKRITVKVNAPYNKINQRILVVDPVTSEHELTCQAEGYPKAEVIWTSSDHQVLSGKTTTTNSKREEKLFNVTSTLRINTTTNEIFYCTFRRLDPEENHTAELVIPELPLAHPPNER
# [2] = biological target: T2, 人OX40抗原(购自Sino) (human, UniProt P43489 29-216, limits assumed); assay: direct ELISA on coated human OX40 antigen; relative binding activity after 1 month at 40℃±2℃, pH 5.0-7.0 samples
# T2 construct: Bought antigen coated on the ELISA plate; also called human OX40; CD134
# T2 sequence (looked up): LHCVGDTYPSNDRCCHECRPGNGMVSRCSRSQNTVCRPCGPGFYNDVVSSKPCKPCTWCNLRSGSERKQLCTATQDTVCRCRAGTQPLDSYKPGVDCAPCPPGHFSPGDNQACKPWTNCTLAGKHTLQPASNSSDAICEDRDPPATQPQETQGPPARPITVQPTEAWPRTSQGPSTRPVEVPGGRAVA
binder,measurement,setting,value
B1,binding result,[1],binds
same,binding result,[2],binds
